9 molecules from PMC3426363 (Pharmaceutical research, 2011) can be followed below.

Bounds are passed on as bounds.

Common to all, as to assay type: in vitro ADME, human
The test system of one series is UGT1A isoforms. Conditions: across the UGT1A isoforms used (Tab.S1).
Substrate in series [1]: O=c1c(O)c(-c2ccc(O)cc2)oc2cc(O)cc(O)c12
Description: UGT1A8 glucuronidation kinetics of flavonols. Conditions: other: UGT1A8, pH 6.5.

Substrate in series [2]: O=c1c(O)c(-c2ccccc2)oc2cc(O)cc(O)c12
Description: UGT1A8 glucuronidation kinetics of flavonols. The following applies: other: UGT1A8, pH 6.5.

Substrate in series [3]: O=c1c(O)c(-c2ccccc2)oc2cc(O)ccc12
Briefly: UGT1A8 glucuronidation kinetics of flavonols. Conditions: other: UGT1A8, pH 6.5.

One may read the Km as the concentration of substrate that gives half-maximal velocity. What is called Vmax is the top rate of the reaction or transport when substrate is in excess.

On to `COc1ccc2oc(-c3ccc(O)cc3)cc(=O)c2c1` [4’H6MF, 4'-hydroxy-6-methoxyflavone], for which the glucuronidation rate in the series with UGT1A isoforms was no more than 0.9 nmol/mg/min.

Consider `COc1cc(O)c2c(=O)cc(-c3ccc(O)cc3)oc2c1` [5,4’DH7MF, 5,4'-dihydroxy-7-methoxyflavone], for which, in the series with UGT1A isoforms, the glucuronidation rate is listed as no more than 0.9 nmol/mg/min.

`O=c1cc(-c2ccccc2)oc2cccc(O)c12` [5HF, 5-hydroxyflavone] came in with a glucuronidation rate in the series with UGT1A isoforms of no more than 0.9 nmol/mg/min.

As for `COc1ccc2c(=O)cc(-c3ccc(O)cc3)oc2c1` [4’H7MF, 4'-hydroxy-7-methoxyflavone], in the series on UGT1A isoforms, the glucuronidation rate was no more than 0.9 nmol/mg/min.

In the case of `COc1cc(O)c2c(=O)cc(-c3ccccc3)oc2c1` [5H7MF, 5-hydroxy-7-methoxyflavone], in the series on UGT1A isoforms, the glucuronidation rate is no more than 0.9 nmol/mg/min.

Regarding `COc1cccc2oc(-c3ccc(O)cc3)cc(=O)c12` [4’H5MF, 4'-hydroxy-5-methoxyflavone], in the series with UGT1A isoforms, the glucuronidation rate is recorded as no more than 0.9 nmol/mg/min.

With `O=c1cc(-c2ccc(O)cc2)oc2cccc(O)c12` [5,4’DHF, 5,4'-dihydroxyflavone], the glucuronidation rate in the series with UGT1A isoforms was no more than 0.9 nmol/mg/min.

The molecule `O=c1cc(-c2ccc(O)cc2)oc2ccccc12` [4’HF, 4'-hydroxyflavone] gave a glucuronidation rate in the series on UGT1A isoforms of no more than 0.9 nmol/mg/min.

B1: UGT1A8 (Homo sapiens) (protein)
chain: GKLLVVPMDGSHWFTMQSVVEKLILRGHEVVVVMPEVSWQLGKSLNCTVKTYSTSYTLEDLDREFMDFADAQWKAQVRSLFSLFLSSSNGFFNLFFSHCRSLFNDRKLVEYLKESSFDAVFLDPFDACGLIVAKYFSLPSVVFARGIACHYLEEGAQCPAPLSYVPRILLGFSDAMTFKERVRNHIMHLEEHLFCQYFSKNALEIASEILQTPVTAYDLYSHTSIWLLRTDFVLDYPKPVMPNMIFIGGINCHQGKPLPMEFEAYINASGEHGIVVFSLGSMVSEIPEKKAMAIADALGKIPQTVLWRYTGTRPSNLANNTILVKWLPQNDLLGHPMTRAFITHAGSHGVYESICNGVPMVMMPLFGDQMDNAKRMETKGAGVTLNVLEMTSEDLENALKAVINDKSYKENIMRLSSLHKDRPVEPLDLAVFWVEFVMRHKGAPHLRPAAHDLTWYQYHSLDVIGFLLAVVLTVAFITFKCCAYGYRKCLGKKGRVKKAHKSKTH
Regarding B1, the Km amounted to 2.39 ± 0.47 µM in series [1] (formation of 3-O-glucuronide); 6.77 ± 1.78 µM in series [1] (formation of 7-O-glucuronide); 6.44 ± 1.28 µM in series [2] (formation of 3-O-glucuronide); 4.88 ± 1.14 µM in series [2] (formation of 7-O-glucuronide); 8.68 ± 1.21 µM in series [3] (formation of 3-O-glucuronide); 27.32 ± 7.50 µM in series [3] (formation of 7-O-glucuronide). The Vmax is on record as 0.74 ± 0.04 nmol/mg/min in series [1] (formation of 3-O-glucuronide); 1.01 ± 0.09 nmol/mg/min in series [1] (formation of 7-O-glucuronide); 3.89 ± 0.47 nmol/mg/min in series [2] (formation of 3-O-glucuronide); 0.79 ± 0.57 nmol/mg/min in series [2] (formation of 7-O-glucuronide); 0.76 ± 0.04 nmol/mg/min in series [3] (formation of 3-O-glucuronide); 0.65 ± 0.10 nmol/mg/min in series [3] (formation of 7-O-glucuronide). For the same molecule, the Vmax/Km in series [1] (formation of 3-O-glucuronide) was 310 µL/min/mg; in series [1] (formation of 7-O-glucuronide), 150 µL/min/mg; in series [2] (formation of 3-O-glucuronide) it was 600 µL/min/mg; in series [2] (formation of 7-O-glucuronide), 160 µL/min/mg; in series [3] (formation of 3-O-glucuronide), 90 µL/min/mg; in series [3] (formation of 7-O-glucuronide), 20 µL/min/mg.
